Laboratory results published in article doi:10.1101/2022.04.02.486817 (bioRxiv, 2022).

T1: Cμ2 (UniProt P84092 158-435)
T1 sequence (looked up): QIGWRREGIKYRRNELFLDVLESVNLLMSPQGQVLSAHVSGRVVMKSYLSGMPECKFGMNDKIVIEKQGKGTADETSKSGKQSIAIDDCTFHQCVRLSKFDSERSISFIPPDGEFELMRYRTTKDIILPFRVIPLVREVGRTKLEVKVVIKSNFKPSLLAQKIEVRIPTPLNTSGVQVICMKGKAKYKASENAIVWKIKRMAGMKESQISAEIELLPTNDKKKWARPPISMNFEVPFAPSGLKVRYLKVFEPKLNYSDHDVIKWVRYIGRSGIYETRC


Legend:
Cμ2 = target: T1, Cμ2; assay: ITC
AP2 α-appendage = AP2 α-appendage (UniProt P17427 702-938); assay: ITC
recombinant AP2 core = recombinant AP2 core (UniProt P18484 1-621; P63010 1-591; P84092 1-435; P62743 1-142); assay: BLI

Chain of AP2 α-appendage (P17427 702-938): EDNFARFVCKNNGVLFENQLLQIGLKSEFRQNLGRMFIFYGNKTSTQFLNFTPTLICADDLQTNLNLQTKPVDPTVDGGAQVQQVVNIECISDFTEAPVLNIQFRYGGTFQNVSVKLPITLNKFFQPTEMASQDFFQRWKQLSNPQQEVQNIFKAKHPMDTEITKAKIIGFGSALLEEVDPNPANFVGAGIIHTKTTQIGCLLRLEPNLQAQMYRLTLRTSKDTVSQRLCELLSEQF

Row | Kd (recombinant AP2 core) | Binder | further results
1 |  | NIPDVDEEGYSIKPETNQNDTKENHFYSSSDSDSEDEEPKKYRI (domain or fragment, human, UniProt Q0JRZ9 314-357, looked up) [FCHO2N1+N2] | Kd (Cμ2): ~25 µM
2 |  | SEEQVSKNLFGPPLESAFDHEH [FCHO1 C peptide (residues 426-448 SEEQVSKNLFGPPLESAFDHEH)] | Kd (AP2 α-appendage): ~50 µM
3 | 8.5 ± 2.2 µM | FCHO1 linker (residues 316-444) (domain or fragment) TCPEVDEEGFTVRPDVTQNSTAEPSRFSSSDSDFDDEEPRKFYVHIKPAPARAPACSPEAAAAQLRATAGSLILPPGPGGTMKRHSSRDAAGKPQRPRSAPRTSSCAERLQSEEQVSKNLFGPPLESAF | 
4 | 9.8 ± 1.5 µM | FCHO2 linker (residues 314-444) (domain or fragment) NIPDVDEEGYSIKPETNQNDTKENHFYSSSDSDSEDEEPKKYRIEIKPMHPNNSHHTMASLDELKVSIGNITLSPAISRHSPVQMNRNLSNEELTKSKPSAPPNEKGTSDLLAWDPLFGPSLDSSSSSSLT | 
